Reference: article PMC3349548, “UBXN7 docks on neddylated cullin complexes using its UIM motif and causes HIF1α accumulation” (BMC Biology, 2012)

Legend:
Conditions in all cases: both partners purified
[1] = target: T1, ubiquitin-agarose (UniProt P0CG47 1-76); assay: pull-down; 25 μg recombinant UBXN7 variant incubated for one hour with 10 μl NEDD8- or ubiquitin-agarose in buffer D (50 mM HEPES/KOH pH 7.5, 60 mM KOAc, 5 mM MgCl2, 5% glycerol, 0.1% Triton X-100)
T1 construct: ubiquitin coupled to agarose beads; source: bought: BostonBiochem (ubiquitin-agarose)

[2] = target: T2, CUL2/RBX1, unmodified (full-length CUL2, GST cleaved off) (human | , UniProt Q13617-1 1-745; P62877 1-108); assay: co-IP; 1.5 μg CUL2/RBX1 (unmodified or neddylated in vitro) pre-incubated with 1.5 μg bacterially expressed Flag-UBXN7 for 30 minutes, then one hour with anti-Flag beads in buffer D
T2 construct: CUL2, human, full-length; RBX1, amplified from EST IMAGE 3138751; also called unmodified CUL2; non-neddylated CUL2; source: Spodoptera frugiperda 21 cells (baculovirus), purified (GSH-Sepharose, GST cleaved with PreScission protease)

[3] = target: T3, CUL2/RBX1, neddylated in vitro (partially neddylated full-length CUL2) (human | , UniProt Q13617-1 1-745; P62877 1-108; Q15843 1-76, NEDD8 conjugated in vitro on only a fraction of CUL2; Lys689 is the site of NEDD8-conjugation in human CUL2); assay: as above
T3 construct: CUL2, human, full-length; RBX1, amplified from EST IMAGE 3138751; NEDD8 (BostonBiochem) conjugated to CUL2 in vitro; RBX1 substoichiometric; also called neddylated CUL2; CUL2 that was in vitro neddylated; copies: + +

[4] = target: T4, Flag-CUL1(324-776)/GST-HA-RBX1 complex, neddylated in vitro (mixture of neddylated and non-neddylated) (UniProt Q13616 324-776; P62877 1-108; Q15843 1-76, NEDD8 conjugated in vitro (mixture of neddylated and non-neddylated); site not stated); assay: pull-down; Flag-CUL1(324-776)/GST-HA-RBX1 (about 1 μg) immobilized on GSH-sepharose, neddylated or mock-treated, incubated for one hour with 3 μg Flag-UBXN7 variant in buffer D; naked beads as control
T4 construct: RBX1; NEDD8 (BostonBiochem) conjugated to the CUL1 fragment in vitro; also called neddylated CUL1 fragment; source: E. coli BL21, co-expressed, immobilized from lysate on GSH-sepharose, neddylated in vitro on the beads; copies: + +

[5] = target: T5, Flag-CUL1(324-776)/GST-HA-RBX1 complex, non-neddylated (mock neddylation) (UniProt Q13616 324-776; P62877 1-108); assay: as above
T5 construct: RBX1; also called non-neddylated CUL1 fragment; CUL1/RBX1 complex; source: E. coli BL21, co-expressed, immobilized from lysate on GSH-sepharose

Measured: binding result

T4 sequence (Q13616 324-776, chain 1 of 3): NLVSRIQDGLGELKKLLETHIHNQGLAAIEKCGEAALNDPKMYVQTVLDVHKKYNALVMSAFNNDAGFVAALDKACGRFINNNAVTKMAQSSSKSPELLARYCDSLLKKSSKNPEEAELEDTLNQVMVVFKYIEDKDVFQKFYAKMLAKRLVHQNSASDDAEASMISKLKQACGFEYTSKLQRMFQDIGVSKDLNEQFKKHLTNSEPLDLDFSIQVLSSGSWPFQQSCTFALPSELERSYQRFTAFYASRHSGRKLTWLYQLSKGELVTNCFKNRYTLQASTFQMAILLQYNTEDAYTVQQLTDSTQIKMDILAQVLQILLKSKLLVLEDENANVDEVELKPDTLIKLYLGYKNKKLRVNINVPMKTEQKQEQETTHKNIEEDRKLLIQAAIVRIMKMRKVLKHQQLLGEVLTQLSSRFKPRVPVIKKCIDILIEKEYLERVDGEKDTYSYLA
T4 sequence (P62877 whole entry, chain 2 of 3, the tested form may be a part): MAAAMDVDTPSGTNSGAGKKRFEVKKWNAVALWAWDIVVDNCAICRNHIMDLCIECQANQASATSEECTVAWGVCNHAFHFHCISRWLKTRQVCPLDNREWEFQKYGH
T4 sequence (Q15843 1-76, chain 3 of 3): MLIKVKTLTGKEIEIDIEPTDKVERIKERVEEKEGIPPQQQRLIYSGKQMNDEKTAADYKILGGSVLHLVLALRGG
T5 sequence (Q13616 324-776, chain 1 of 2): as the sequence (Q13616 324-776, chain 1 of 3) above
T5 sequence (P62877 whole entry, chain 2 of 2, the tested form may be a part): as the sequence (P62877 whole entry, chain 2 of 3, the tested form may be a part) above
T3 sequence (Q13617 whole entry, chain 1 of 3): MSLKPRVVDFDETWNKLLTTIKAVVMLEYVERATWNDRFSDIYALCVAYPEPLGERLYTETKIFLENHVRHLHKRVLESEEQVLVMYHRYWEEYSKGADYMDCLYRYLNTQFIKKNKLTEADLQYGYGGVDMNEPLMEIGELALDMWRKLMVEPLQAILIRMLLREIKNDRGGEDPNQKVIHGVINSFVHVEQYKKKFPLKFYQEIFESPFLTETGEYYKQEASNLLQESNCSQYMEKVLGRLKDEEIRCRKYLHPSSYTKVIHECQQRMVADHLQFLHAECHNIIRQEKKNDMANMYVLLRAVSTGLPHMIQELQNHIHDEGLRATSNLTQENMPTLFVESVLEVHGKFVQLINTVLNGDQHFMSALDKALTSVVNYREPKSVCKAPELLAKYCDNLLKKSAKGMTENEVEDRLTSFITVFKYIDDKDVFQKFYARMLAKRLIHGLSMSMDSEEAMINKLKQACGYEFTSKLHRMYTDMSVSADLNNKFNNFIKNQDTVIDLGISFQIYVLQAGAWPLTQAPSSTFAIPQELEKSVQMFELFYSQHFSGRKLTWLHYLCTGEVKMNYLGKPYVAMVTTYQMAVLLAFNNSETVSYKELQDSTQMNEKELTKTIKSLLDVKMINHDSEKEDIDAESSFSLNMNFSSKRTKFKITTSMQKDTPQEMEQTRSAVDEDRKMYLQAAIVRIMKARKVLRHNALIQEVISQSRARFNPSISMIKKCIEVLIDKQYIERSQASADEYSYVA
T3 sequence (P62877 whole entry, chain 2 of 3): as the sequence (P62877 whole entry, chain 2 of 3, the tested form may be a part) above
T3 sequence (Q15843 1-76, chain 3 of 3): as the sequence (Q15843 1-76, chain 3 of 3) above
T2 sequence (Q13617 whole entry, chain 1 of 2): as the sequence (Q13617 whole entry, chain 1 of 3) above
T2 sequence (P62877 whole entry, chain 2 of 2): as the sequence (P62877 whole entry, chain 2 of 3, the tested form may be a part) above

B1: bacterially expressed Flag-UBXN7 (wild-type, full length) (natural protein, human, UniProt O94888 1-489, looked up)
chain: MAAHGGSAASSALKGLIQQFTTITGASESVGKHMLEACNNNLEMAVTMFLDGGGIAEEPSTSSASVSTVRPHTEEEVRAPIPQKQEILVEPEPLFGAPKRRRPARSIFDGFRDFQTETIRQEQELRNGGAIDKKLTTLADLFRPPIDLMHKGSFETAKECGQMQNKWLMINIQNVQDFACQCLNRDVWSNEAVKNIIREHFIFWQVYHDSEEGQRYIQFYKLGDFPYVSILDPRTGQKLVEWHQLDVSSFLDQVTGFLGEHGQLDGLSSSPPKKCARSESLIDASEDSQLEAAIRASLQETHFDSTQTKQDSRSDEESESELFSGSEEFISVCGSDEEEEVENLAKSRKSPHKDLGHRKEENRRPLTEPPVRTDPGTATNHQGLPAVDSEILEMPPEKADGVVEGIDVNGPKAQLMLRYPDGKREQITLPEQAKLLALVKHVQSKGYPNERFELLTNFPRRKLSHLDYDITLQEAGLCPQETVFVQERN
notes: UBXN7, human, full length, in a modified pGEX6P-1 vector; also called wild-type UBXN7; recombinant UBXN7; source: E. coli BL21 DE3, purified (GSH-sepharose, TEV cleavage, Superdex 75)
binds: all assays above
